Experimental findings from publication PMC12199414, “A Self‐Assembling LYTAC Mediates CTGF Degradation and Remodels Inflammatory Tumor Microenvironment for Triple‐Negative Breast Cancer Therapy” (Advanced Science, 2025) are described below.

One data set in a line: Plasma stability assay. Format: in vitro ADME. The conditions noted are these: 50% mouse plasma (DLS) and 20% mouse plasma or 1.5 × 10^−6 M GSH (HPLC), different time periods, n = 3. The protocol:
(§1) For the DLS assay, NanoCLY solution was mixed with 50% mouse plasma and incubated for different time periods. After incubation, the aliquots were analyzed using DLS. For the NanoCLY stability assay under simulated plasma GSH conditions, NanoCLY solution was mixed with 1.5 × 10^−6 M GSH or 20% mouse plasma, and was incubated for different time periods. After incubation, the aliquots were diluted and analyzed by HPLC.

A further data set deals with T1, CTGF (Homo sapiens, UniProt P29279).
T1 construct: endogenous in cells; host or cells: BT549 and MDA-MB-231 (human TNBC cell lines)
T1 sequence (P29279 27-349): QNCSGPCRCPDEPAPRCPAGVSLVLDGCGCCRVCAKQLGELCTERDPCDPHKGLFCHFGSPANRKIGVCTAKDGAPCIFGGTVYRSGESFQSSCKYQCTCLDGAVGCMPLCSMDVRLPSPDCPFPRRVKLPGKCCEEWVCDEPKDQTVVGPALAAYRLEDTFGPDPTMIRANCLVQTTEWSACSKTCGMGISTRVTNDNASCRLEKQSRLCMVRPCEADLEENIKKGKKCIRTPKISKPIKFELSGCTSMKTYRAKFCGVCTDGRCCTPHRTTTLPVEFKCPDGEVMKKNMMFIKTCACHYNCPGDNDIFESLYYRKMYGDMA
The data set can be described thus: ELISA of extracellular CTGF in culture media of TNBC cells. Format: cell-based. The following applies: in vitro, BT549 and MDA-MB-231 culture media, 12 h. The protocol: BT549 and MDA‐MB‐231 cells were treated with various concentrations of CL8‐M6P3 or NanoCLY for 12 h. Extracellular CTGF protein level in conditioned media was quantified by a human CTGF ELISA kit following the manufacturer's instructions (ab261851, Abcam and CSB‐E07875h, Cusabio). Extracellular CCN1, CCN3, and CCN4 protein levels were quantified using respective ELISA kits (HY‐P7842, HY‐P701327, HY‐P78051, MCE) following the manufacturer's instructions (CSB‐EL015956HU, CSB‐EL026119HU, CSB‐E13884h, Cusabio). Additionally, BSP and β‐CTx levels in serum were quantified by ELISA kit following the manufacturer's instructions (BPE10823, BPE10438, lengton).
On the technique in general: In an ELISA, binding on a coated surface is turned into a signal by an enzyme label.

The nature of data set [1]: GSH response of NanoCLY (HPLC). The format is physicochemical. The protocol:
For in vitro experiments, NanoCLY (0.1 mg mL^−1) was incubated with varying concentrations of GSH (0, 2, 25 × 10^−5 M) in PBS at 37 °C for 6 h. After incubation, the aliquots were analyzed by NanoSight (Malvern Panalytical, UK), HPLC (Agilent, USA), and TEM (JEOL, Japan). For in vivo experiments, when tumor volume reached about 200 mm^3, mice were intratumorally injected with 50 µL NanoCLY (2.5 mg kg^−1), or NanoCLY (2.5 mg kg^−1) with a 20‐min preinjection of H2O2 (2.5 × 10^−2 M). Tumors were collected after 4 h for HPLC analysis.
as §1

A short description of data set [2]: Critical micelle concentration with pyrene. The following applies: pyrene fluorescence I390/I380, aqueous solution, sonicated 2 h. Format: physicochemical. As to the method: The CMC value of NanoCLY in an aqueous solution was estimated by pyrene. Pyrene with the final concentration of 6.08 mg L^−1 was added 100 µL to Eppendorf tubes and dried overnight, and was added with 500 µL of various concentrations of NanoCLY (0.001, 0.006, 0.0125, 0.025, 0.05, 0.2, 0.6 mg mL^−1), and sonicated for 2 h. After sonicating, the supernatant samples were collected, and recorded the intensity ratios of I390/I380 by microplate reader Cytation 5 (Biotek, USA). The crossing point of the two linear fittings of the logarithm of NanoCLY concentrations was set as the CMC value.

The test system of another data set is MDA‐MB‐231‐Luc cells. Kind of data set: Lung metastasis model. The following applies: 10 mg kg^−1 i.v. every 2 days, 12 times, bioluminescence day 12, 18, 24, n = 3. Format: in vivo, BALB/c nude mice. As to the method: Exponentially grown 5 × 10^5 MDA‐MB‐231‐Luc cells were suspended in 100 µL of PBS and intravenously injected into female nude BALB/c mice. The mice were randomly divided into […] (n = 3) and treated with PBS, 10 mg kg^−1 NanoCLY via intravenous injection every 2 days for 12 times in total. The growth of lung metastatic tumors was monitored by VISQUE In Vivo Elite after intraperitoneal injection of 20 mg kg^−1 D‐luciferin on day 12, day 18, and day 24. At the end of monitoring on day 24, the lungs were photographed and fixed, and H&E staining. Metastatic areas on the lung surface were quantified by ImageJ software.

The subject of the next data set is MDA‐MB‐231 tumor. Kind of data set: Orthotopic xenograft MDA‐MB‐231 tumor model. The format is in vivo, BALB/c nude mice. The protocol: For the orthotopic xenograft MDA‐MB‐231 tumor model, 3 × 10^6 cells were injected into the fourth pair of breast pads on the left side of the female nude mice (4–6 weeks old). To evaluate the antitumor effect of NanoCLY in vivo, the mice were treated with 10 mg kg^−1 NanoCLY daily once the tumor volume reached ≈50 mm^3, with CL8 peptide (10 mg kg^−1, daily) and FG‐3019 (30 mg kg^−1, every 3 days) as the positive control group and PBS as negative control group. The dose selection and administration frequency of NanoCLY were based on both references to previously reported protein degrader studies with similar mechanisms and effective concentrations,^[ [28], [54], [58] ^] and our preliminary in vivo dose‐escalation experiments. […] Based on this, 10 mg kg^−1 was selected for subsequent experiments. As for FG‐3019, the 30 mg kg^−1 dose was chosen based on previous studies.^[ [43], [59] ^] To evaluate the advantages of degradation strategies in vivo, the mice were treated with 10 mg kg^−1 NanoCLY daily with Nano@CL8 (10 mg kg^−1, daily) and PBS as control group. To evaluate the antitumor effect of combination therapy in vivo, the mice were treated with NanoCLY (10 mg kg^−1, daily), PTX (5 mg kg^−1, every two days), and PTX plus NanoCLY. […]

As for “C12-CPSAAHYL-PEG3-[Pra(M6P)βAla]3-NH2 [NanoCLY, CL8-M6P3 joined to a lauryl chain via disulfide; self-assembling GSH-responsive LYTAC nanoparticle]”, the “size and structural integrity under plasma conditions” value in “Plasma stability assay” is “retained its size and structural integrity”. For the same substance, on CTGF, the “extracellular CTGF degraded” value is “≈ 50%”. The “stability under plasma-mimicking GSH” value in data set [1] (GSH 1.5 × 10⁻⁶ M, analytical HPLC 214 nm) was “remained stable”. Besides, in data set [1] (GSH 2 × 10⁻⁵ and 2.5 × 10⁻⁴ M in PBS, 37 °C, 6 h, NanoCLY 0.1 mg mL^−1, analytical HPLC 214 nm), the “disulfide linker cleavage at TME-relevant GSH” value is “selective cleavage of the disulfide linker”. The same substance came in with a critical micelle concentration (CMC) in data set [2] of 55.1 µg/mL. In addition, the “lung colonization by MDA-MB-231 cells” value with MDA‐MB‐231‐Luc cells was “significantly reduced lung colonization”. The “tumor growth inhibition (TGI)” value in the data set with MDA‐MB‐231 tumor (10 mg kg^−1 daily i.v., n = 6) is 59.62% and ≈ 60%. The tumor inhibition rate result in the data set with MDA‐MB‐231 tumor (preliminary in vivo dose-escalation experiments, 10 mg kg^−1) is on record as “over 50%”.
